The text below walks through data of US6464983.

Assay [1] has as its target low affinity CTGF receptors on mouse fibroblasts (NTH3T3) (mouse). The assay is described as follows: 125I-rhCTGF binding to cells, competition binding assay.
For assay [2], the target named is high affinity CTGF receptors on mouse fibroblasts (NTH3T3) (mouse). The assay is described as above.
Assay [3] addresses high affinity CTGF receptors on primary rat articular chondrocytes (rat). The assay is described as follows: 125I-rhCTGF binding to cell monolayers, Scatchard / competition with unlabeled CTGF.
For assay [4], the target named is high affinity CTGF receptors on NRK-49F rat fibroblasts (rat). The description is as above.
The target of assay [5] is low affinity CTGF receptors on NRK-49F rat fibroblasts (rat). The description is as above.
For assay [6], the target named is low affinity CTGF receptors on primary rat articular chondrocytes (rat). Described as above.

One may read the Kd as the equilibrium constant for the complex coming apart. A lower Kd goes with a tighter complex.

Consider “iodinated recombinant human Connective Tissue Growth Factor (rhCTGF) (from UniProt P29279 27-349) (ligand)”, for which the Kd in assay [1] is 1800 pM; in assay [2] it was 5 to 10 pM; in assay [3] it was 21 pM; in assay [4] it was 13 to 23 pM; in assay [5], 1100 to 2200 pM; in assay [6], 1000 pM. Moreover, the Sites/cell in assay [1] is 102000 sites/cell; in assay [2] it was 480 sites/cell; in assay [6], 150000 sites/cell.
